The text below walks through data of publication PMC7591906, “pHLIP ICG for delineation of tumors and blood flow during fluorescence-guided surgery” (Scientific Reports, 2020).

Peptide text beside a SMILES is read from it. * marks the point of attachment. X1 = CC1(C)C(/C=C/C=C/C=C/C=C2/N(CCCCCC(=O)NCCN3C(=O)CC(*)C3=O)c3ccc4ccccc4c3C2(C)C)=[N+](CCCCS(=O)(=O)[O-])c2ccc3ccccc3c21

One may read the IC50 as the concentration at which inhibition is half-maximal. What is called Ki is the dissociation constant of the complex between target and ligand, obtained from inhibition or displacement. High values mean lower affinity, low ones higher affinity. As a reminder, the clearance is a measure of how efficiently the substance is removed, as volume per time.

For one data set, the target named is T1, progesterone receptor B (Homo sapiens, UniProt P06401).
T1 construct: purchased Eurofins Panlabs, Inc
T1 sequence (P06401 1-933): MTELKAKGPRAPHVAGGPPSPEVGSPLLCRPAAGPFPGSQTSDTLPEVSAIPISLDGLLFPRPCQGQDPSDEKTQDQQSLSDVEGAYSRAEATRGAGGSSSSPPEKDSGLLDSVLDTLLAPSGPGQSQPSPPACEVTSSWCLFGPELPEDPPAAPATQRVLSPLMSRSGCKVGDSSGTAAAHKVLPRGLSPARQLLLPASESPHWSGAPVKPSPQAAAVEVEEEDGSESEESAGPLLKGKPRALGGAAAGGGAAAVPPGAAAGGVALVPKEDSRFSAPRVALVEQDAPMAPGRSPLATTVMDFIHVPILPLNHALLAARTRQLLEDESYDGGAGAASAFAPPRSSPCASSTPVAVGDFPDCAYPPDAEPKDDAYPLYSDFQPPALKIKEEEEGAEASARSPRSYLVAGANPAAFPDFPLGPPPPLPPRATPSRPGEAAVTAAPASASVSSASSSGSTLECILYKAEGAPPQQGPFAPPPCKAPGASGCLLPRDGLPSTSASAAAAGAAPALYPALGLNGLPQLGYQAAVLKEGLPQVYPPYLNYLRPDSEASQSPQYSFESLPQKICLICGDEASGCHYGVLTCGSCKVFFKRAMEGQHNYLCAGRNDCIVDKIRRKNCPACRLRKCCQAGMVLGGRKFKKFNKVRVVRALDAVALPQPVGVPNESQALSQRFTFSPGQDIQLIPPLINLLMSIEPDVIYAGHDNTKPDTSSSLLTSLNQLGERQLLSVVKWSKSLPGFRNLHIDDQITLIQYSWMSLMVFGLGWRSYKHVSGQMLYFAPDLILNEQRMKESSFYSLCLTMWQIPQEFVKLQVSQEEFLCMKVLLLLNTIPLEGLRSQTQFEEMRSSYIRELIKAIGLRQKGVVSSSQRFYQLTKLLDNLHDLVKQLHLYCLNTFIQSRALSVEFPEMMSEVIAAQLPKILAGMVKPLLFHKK
Briefly: Progesterone receptor B radioligand binding assay. As to the method:
The pHLIP ICG enzyme binding assays were performed by Eurofins Panlabs, Inc. according to standard assay protocols. The following enzymes were used in the binding assay with 2 µM of pHLIP ICG : acetyl cholinesterase; peptidase (angiotensin converting enzyme); ATPase (Na^+/K^+, pig heart); CTSG peptidase (cathepsin G); cyclooxygenases COX-1 and COX-2; monoamine oxidases MAO-A and MAO-B; phosphodiesterases PDE3 and PDE4D2; protein tyrosine kinase (insulin receptor); protein tyrosine kinase (LCK); protein serine/threonine kinase (PKC, non-selective); adenosine A1 and A2A; adenosine transporter; adrenergic α1A, α1B, α1D, α2A, α2B, β1 and β2; norepinephrine transporter (NET); androgen (testosterone); angiotensin AT1; bradykinin B2; calcium channels L-type (benzothiazepine, dihydropyridine, phenylalkylamine); calcium channel N-type; cannabinoid CB1 and CB2; chemokine CCR1; cholecystokinin CCK1 (CCKA) and CCK2 (CCKB); dopamine D1, D2L and D2S; dopamine transporter (DAT); endothelin ETA; estrogen ERα; GABA transporter; GABAAs (flunitrazepam, central; Ro-15-1788, hippocampus and chloride channel, TBOB); glucocorticoid; glutamate (AMPA, kainate, agonism NMDA, glycine NMDA, phencyclidine NMDA, polyamine NMDA, and mGlu5 metabotropic); glycine (strychnine-sensitive); histamine H1 and H2; chemokine CXCR2 (IL-8RB); cysteinyl leukotriene (CysLT1); melanocortin MC1 and MC4; muscarinic M1, M2, M3, and M4; tachykinin NK1; neuropeptide Y Y1; nicotinic acetylcholine α1 (bungarotoxin) and α3β4; opiate δ1 (OP1, DOP), κ (OP2, KOP), and μ (OP3, MOP); platelet activating factor (PAF); potassium channels (KATP and hERG); PPARγ; serotonin (5-hydroxytryptamine) 5-HT1A, 5-HT1B, 5-HT2A, 5-HT2B, 5-HT2C, and 5-HT3; serotonin transporter (SERT); sodium channel (site 2); vasopressin V1A; progesterone (PR-B). The most significant inhibitory effect of pHLIP ICG was observed on progesterone B and was followed by an additional study to identify IC50 values, which were determined by a non-linear least square regression analysis using MathIQTM (ID Business Solutions Ltd., UK). The Ki values were calculated by the equation from Cheng and Prusoff [Cheng, Y., Prusoff, W.H., Biochem. Pharmacol. 22:3099-3108, 1973] using the observed IC50 of pHLIP ICG , the concentration of radioligand employed in the assay, and the historical values for the KD of the ligand (Eurofins Panlabs data). The Hill coefficient (nH), defining the slope of the competitive binding curve, was calculated using MathIQTM. The IC50, Ki, and nH values were established for pHLIP ICG and compared to the known progesterone agonist, R-2050 (Figure S3).
Figure SI,3. […]

A short description of data set [1]: Pharmacokinetics in mice, single i.v. injection. The format is in vivo, B6D2F1 mice. To be noted: single i.v. 12.3 mg/kg. As to the method:
The purpose of this study, performed at MSK, was to determine the pharmacokinetic parameters of pHLIP ICG in 3 female B6D2F1 mice following a single i.v. injection of pHLIP ICG at a dose of 12.3 mg/kg. Blood was collected in EDTA tubes at 5, 15, 30 minutes, and 1, 2, 4, 6, 8, 16, and 24 hours post-injection, followed by centrifugation to separate the plasma, and flash frozen. At time of analysis, samples were thawed, extracted, and analyzed via LC-MS as per the validated protocol using pHLIPIS.

Data set [2] in a line: Imaging of blood vessels in mice. The format is in vivo, athymic female nude mice. To be noted: 2.5 nmol single tail vein injection, NIR imaging of leg and ear, five animals.
Protocol: Single tail vein administrations of 2.5 nmol of ICG-Cys or pHLIP ICG in sterile PBS or PBS with 5% DMSO or 5% Ethanol (vol:vol) (volume of the injection was 100 μl) were given to athymic female nude mice (strain Hsd Athymic Nude-Foxn1nu) ranging in age from 5 to 6 weeks (obtained from Envigo RMS Inc). Mice were under gas anesthesia, and imaging of mouse leg and ear was performed immediately and at different time points (from 5 min till 120 min) after administration of ICG-Cys or pHLIP ICG using the Stryker 1558 AIM clinical imaging system with L10 AIM Light Source, 1588 AIM Camera and a 10 mm scope and a Novadaq imaging system. Five animals per construct were used in the study.
The conditions of data set [3]: cited from earlier work. An excerpt:
Since pHLIP peptides offer a unique approach to the targeting of a spectrum of tumor subtypes, we were motivated to develop a fluorescent pHLIP candidate in order to improve the surgical resection of tumors guided by fluorescence. After testing a variety of fluorescent dyes with pHLIP peptides, we chose a widely used clinical fluorescent dye, indocyanine green (ICG). In addition to its long record of safety, ICG was chosen to couple to pHLIP peptide as a clinical imaging candidate for two main reasons: first, the fluorescence of pHLIP ICG is enhanced about 20 times when pHLIP tethers ICG t ...

As for `CC(C)C[C@H](NC(=O)[C@H](Cc1ccc(O)cc1)NC(=O)[C@H](C)NC(=O)[C@H](CCCNC(=N)N)NC(=O)[C@H](Cc1c[nH]c2ccccc12)NC(=O)[C@@H]1CCCN1C(=O)[C@H](CC(N)=O)NC(=O)[C@H](CCC(N)=O)NC(=O)[C@H](CC(=O)O)NC(=O)[C@H](CC(=O)O)NC(=O)[C@H](CSC1CC(=O)N(CCNC(=O)CCCCCN2/C(=C/C=C/C=C/C=C/C3=[N+](CCCCS(=O)(=O)[O-])c4ccc5ccccc5c4C3(C)C)C(C)(C)c3c2ccc2ccccc32)C1=O)NC(=O)[C@H](C)N)C(=O)N[C@@H](CC(=O)O)C(=O)N[C@@H](CC(C)C)C(=O)N[C@@H](CC(C)C)C(=O)N[C@@H](Cc1ccccc1)C(=O)N1CCC[C@H]1C(=O)N[C@H](C(=O)N[C@@H](CC(=O)O)C(=O)N[C@H](C(=O)N[C@@H](CC(C)C)C(=O)N[C@@H](CC(C)C)C(=O)N[C@@H](CC(C)C)C(=O)N[C@@H](CC(=O)O)C(=O)N[C@@H](CC(C)C)C(=O)N[C@@H](CC(C)C)C(=O)N[C@@H](Cc1c[nH]c2ccccc12)C(=O)N[C@@H](C)C(=O)O)[C@@H](C)O)[C@@H](C)O` (some centres unmarked) [pHLIP ICG] (H-AC(X1)DDQNPWRAYLDLLFPTDTLLLDLLWA-OH), on progesterone receptor B, the IC50 was 640 nM and the Ki is 510 nM. In data set [1] (female, B6D2F1, mouse, plasma, iv, mean, read-out: Clearance (Cl) (converted)), the clearance is 0.159 mL/min/kg. Further, the half-life in data set [1] (female, B6D2F1, mouse, plasma, iv, mean, read-out: Elimination half-time (T1/2) (converted)) is 3.9 h. The Vd in data set [1] (female, B6D2F1, mouse, plasma, iv, mean, read-out: Volume of distribution (Vz)) was determined as 0.0535 L/kg. For the same compound, in data set [1] (LC-MS), the “Systemic exposure quantifiable up to” value is listed as “up to 16 hours”. For the same compound, the “Time for which blood vessels are clearly revealed” value in data set [2] is listed as “up to 2 h”. Further, the “Fluorescence enhancement when tethered to the membrane vs aqueous solution” value in data set [3] was “about 20 times”.
